These results are taken from patent US20170355744A1 (published 2017).

Assay [1] concerns the target T1, CI-MPR receptor on human MPS IIIB fibroblasts (human), P11717. Kind of assay: cell-based or functional assay.
The target in assay [2] is T2, fragment of the IGFIIR involved with IGF-II binding (domains 10-13, named protein 1288) (UniProt P11717 1367-1989).
T2 construct: domain: domains 10-13; Coated on the plate at 0.5 ug/well; also called IGF2R
Description: IGF2R competitive binding assay, displacement of 8 nM biotinylated IGF-II from plate-coated IGFIIR domains 10-13. Here is the method:
To measure the ability of the Naglu fusion protein constructs to bind to the IGF-II receptor a competitive binding assay is carried out. A fragment of the IGFIIR involved with IGF-II binding (domains 10-13, named protein 1288) is coated onto 96-well plates. Biotinylated IGF-II is incubated with the receptor in the presence of increasing amounts of competitors: either control IGF-II (non-biotinylated), or fusion protein sample (containing an IGF-II-derived GILT epitope tag). Receptor-bound biotinylated IGF-II is detected with streptavidin conjugated to horseradish peroxidase (HRP) and a chemiluminescent HRP substrate. The ability of the fusion protein to inhibit binding of biotinylated IGF-II to the IGFIIR is calculated from inhibition curves and reported as an IC₅₀ value (concentration required to achieve 50% binding inhibition).
For the assay, IGFIIR is coated in a white Reacti-bind plate (Pierce, Cat#437111) at 0.5 μg/well in a volume of 100 μl (69.6 nM/per well) in coating buffer. The plate is sealed and incubated overnight at room temperature. The plate is then washed 3× with wash buffer, blocked with blocking buffer and then washed again 3× with wash buffer (300 μl/well).

Assay [3] addresses T1, CI-MPR receptor on human MPS IIIB …. Description: cell-based or functional assay. This is another data set of the same source.

Values joined by “and” are separate entries in the source; they are usually repeats but may differ in a detail not shown here. Equal values may be shown once. Read-outs that look alike come from different tables or passages of the source.

One may read the IC50 as the concentration that gives 50% inhibition.

T1 sequence (P11717 41-2491): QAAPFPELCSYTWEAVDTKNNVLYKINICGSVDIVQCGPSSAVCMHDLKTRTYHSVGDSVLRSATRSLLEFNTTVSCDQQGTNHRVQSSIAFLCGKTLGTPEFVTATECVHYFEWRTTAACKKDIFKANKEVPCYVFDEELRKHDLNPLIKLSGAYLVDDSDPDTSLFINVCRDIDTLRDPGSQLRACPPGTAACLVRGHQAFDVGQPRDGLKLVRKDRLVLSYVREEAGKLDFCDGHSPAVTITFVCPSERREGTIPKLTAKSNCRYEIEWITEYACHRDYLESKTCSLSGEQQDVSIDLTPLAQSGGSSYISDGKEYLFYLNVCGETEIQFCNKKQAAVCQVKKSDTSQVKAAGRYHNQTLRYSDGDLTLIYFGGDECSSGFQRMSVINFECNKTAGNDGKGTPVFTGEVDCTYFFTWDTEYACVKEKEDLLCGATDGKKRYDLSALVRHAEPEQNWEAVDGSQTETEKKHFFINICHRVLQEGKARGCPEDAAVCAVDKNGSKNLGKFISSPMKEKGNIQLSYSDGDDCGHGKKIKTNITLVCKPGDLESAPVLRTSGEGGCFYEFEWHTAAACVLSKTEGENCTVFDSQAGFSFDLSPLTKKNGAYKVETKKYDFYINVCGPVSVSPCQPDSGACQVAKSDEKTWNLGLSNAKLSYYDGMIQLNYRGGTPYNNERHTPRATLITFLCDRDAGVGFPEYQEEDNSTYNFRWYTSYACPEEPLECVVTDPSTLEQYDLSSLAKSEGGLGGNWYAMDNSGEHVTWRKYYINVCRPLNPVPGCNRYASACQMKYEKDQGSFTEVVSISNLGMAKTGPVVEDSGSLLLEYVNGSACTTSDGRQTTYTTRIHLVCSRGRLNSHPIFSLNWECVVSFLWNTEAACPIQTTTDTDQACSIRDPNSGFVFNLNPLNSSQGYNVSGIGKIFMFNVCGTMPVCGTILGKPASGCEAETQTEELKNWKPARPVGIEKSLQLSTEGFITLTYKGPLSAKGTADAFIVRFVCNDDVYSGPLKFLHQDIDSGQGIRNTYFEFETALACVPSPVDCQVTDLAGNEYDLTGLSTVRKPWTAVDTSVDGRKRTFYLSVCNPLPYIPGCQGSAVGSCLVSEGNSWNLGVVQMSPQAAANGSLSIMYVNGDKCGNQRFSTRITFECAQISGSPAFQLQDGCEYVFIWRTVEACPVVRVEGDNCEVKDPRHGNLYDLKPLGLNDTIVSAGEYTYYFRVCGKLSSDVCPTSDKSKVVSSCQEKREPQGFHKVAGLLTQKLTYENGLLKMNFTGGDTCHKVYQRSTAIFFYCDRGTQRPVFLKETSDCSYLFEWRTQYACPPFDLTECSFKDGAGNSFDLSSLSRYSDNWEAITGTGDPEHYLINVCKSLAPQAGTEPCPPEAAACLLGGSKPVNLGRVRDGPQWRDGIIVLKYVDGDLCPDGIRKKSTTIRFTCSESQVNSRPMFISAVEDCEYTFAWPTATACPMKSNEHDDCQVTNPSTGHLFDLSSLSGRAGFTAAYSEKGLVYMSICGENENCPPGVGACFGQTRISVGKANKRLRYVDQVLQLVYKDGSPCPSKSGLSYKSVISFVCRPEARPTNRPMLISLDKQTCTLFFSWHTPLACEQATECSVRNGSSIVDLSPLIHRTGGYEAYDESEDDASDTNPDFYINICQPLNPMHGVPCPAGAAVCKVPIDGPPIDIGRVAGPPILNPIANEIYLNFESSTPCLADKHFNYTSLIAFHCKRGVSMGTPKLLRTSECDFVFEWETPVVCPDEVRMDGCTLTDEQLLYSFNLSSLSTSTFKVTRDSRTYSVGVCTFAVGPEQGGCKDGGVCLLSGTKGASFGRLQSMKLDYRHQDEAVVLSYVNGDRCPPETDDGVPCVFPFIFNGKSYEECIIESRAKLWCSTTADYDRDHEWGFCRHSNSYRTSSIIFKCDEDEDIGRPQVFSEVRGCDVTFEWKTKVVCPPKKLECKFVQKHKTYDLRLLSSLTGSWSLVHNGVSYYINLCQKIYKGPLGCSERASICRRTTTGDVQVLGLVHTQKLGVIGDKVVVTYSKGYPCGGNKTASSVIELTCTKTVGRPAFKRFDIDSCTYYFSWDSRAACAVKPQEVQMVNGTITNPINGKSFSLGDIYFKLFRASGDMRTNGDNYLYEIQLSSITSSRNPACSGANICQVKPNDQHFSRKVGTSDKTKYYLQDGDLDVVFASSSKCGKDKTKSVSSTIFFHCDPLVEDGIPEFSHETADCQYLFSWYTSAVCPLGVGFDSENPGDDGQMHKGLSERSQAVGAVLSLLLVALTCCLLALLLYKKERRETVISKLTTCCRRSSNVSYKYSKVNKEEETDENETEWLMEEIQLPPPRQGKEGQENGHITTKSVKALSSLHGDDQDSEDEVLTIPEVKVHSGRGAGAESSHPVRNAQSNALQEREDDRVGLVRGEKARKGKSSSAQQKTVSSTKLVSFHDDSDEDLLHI
T2 sequence (P11717 1367-1989 limits assumed): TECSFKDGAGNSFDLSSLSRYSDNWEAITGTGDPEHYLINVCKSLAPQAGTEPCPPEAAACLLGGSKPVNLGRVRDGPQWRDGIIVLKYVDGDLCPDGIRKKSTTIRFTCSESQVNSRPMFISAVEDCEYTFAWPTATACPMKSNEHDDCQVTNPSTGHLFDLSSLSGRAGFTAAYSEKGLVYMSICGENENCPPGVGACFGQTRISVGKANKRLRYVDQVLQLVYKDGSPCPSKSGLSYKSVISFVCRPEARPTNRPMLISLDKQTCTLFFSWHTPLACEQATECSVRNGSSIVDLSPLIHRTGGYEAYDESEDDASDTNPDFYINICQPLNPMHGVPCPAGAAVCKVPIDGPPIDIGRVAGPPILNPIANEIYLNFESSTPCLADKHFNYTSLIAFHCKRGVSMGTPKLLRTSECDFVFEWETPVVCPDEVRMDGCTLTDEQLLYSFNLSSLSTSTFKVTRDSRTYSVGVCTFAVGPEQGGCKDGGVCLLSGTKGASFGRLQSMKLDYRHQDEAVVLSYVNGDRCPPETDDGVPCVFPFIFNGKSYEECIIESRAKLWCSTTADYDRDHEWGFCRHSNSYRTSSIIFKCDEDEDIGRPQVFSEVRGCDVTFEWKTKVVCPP

B1: Naglu-XTEN-IGF-II (SEQ ID NO: 565) (enzyme)
chain: DEAREAAAVRALVARLLGPGPAADFSVSVERALAAKPGLDTYSLGGGGAARVRVRGSTGVAAAAGLHRYLRDFCGCHVAWSGSQLRLPRPLPAVPGELTEATPNRYRYYQNVCTQSYSFVWWDWARWEREIDWMALNGINLALAWSGQEAIWQRVYLALGLTQAEINEFFTGPAFLAWGRMGNLHTWDGPLPPSWHIKQLYLQHRVLDQMRSFGMTPVLPAFAGHVPEAVTRVFPQVNVTKMGSWGHFNCSYSCSFLLAPEDPIFPIIGSLFLRELIKEFGTDHIYGADTFNEMQPPSSEPSYLAAATTAVYEAMTAVDTEAVWLLQGWLFQHQPQFWGPAQIRAVLGAVPRGRLLVLDLFAESQPVYTRTASFQGQPFIWCMLHNFGGNHGLFGALEAVNGGPEAARLFPNSTMVGTGMAPEGISQNEVVYSLMAELGWRKDPVPDLAAWVTSFAARRYGVSHPDAGAAWRLLLRSVYNCSGEACRGHNRSPLVRRPSLQMNTSIWYNRSDVFEAWRLLLTSAPSLATSPAFRYDLLDLTRQAVQELVSLYYEEARSAYLSKELASLLRAGGVLAYELLPALDEVLASDSRFLLGSWLEQARAAAVSEAEADFYEQNSRYQLTLWGPEGNILDYANKQLAGLVANYYTPRWRLFLEALVDSVAQGIPFQQHQFDKNVFQLEQAFVLSKQRYPSQPRGDTVDLAKKIFLKYYPRWVAGSWGAPGGSPAGSPTSTEEGTSESATPESGPGTSTEPSEGSAPGSPAGSPTSTGPSGAPLCGGELVDTLQFVCGDRGFYFSRPASRVSARSRGIVEECCFRSCDLALLETYCATPAKSE
notes: also called Naglu fusion protein
In assay [1], B1 registered a Kuptake of 3.7 nM. In assay [2], this molecule gave an IC50 of 0.24 nM.

B2: Naglu-Helical-IGF-II (SEQ ID NO: 567) (enzyme)
chain: DEAREAAAVRALVARLLGPGPAADFSVSVERALAAKPGLDTYSLGGGGAARVRVRGSTGVAAAAGLHRYLRDFCGCHVAWSGSQLRLPRPLPAVPGELTEATPNRYRYYQNVCTQSYSFVWWDWARWEREIDWMALNGINLALAWSGQEAIWQRVYLALGLTQAEINEFFTGPAFLAWGRMGNLHTWDGPLPPSWHIKQLYLQHRVLDQMRSFGMTPVLPAFAGHVPEAVTRVFPQVNVTKMGSWGHFNCSYSCSFLLAPEDPIFPIIGSLFLRELIKEFGTDHIYGADTFNEMQPPSSEPSYLAAATTAVYEAMTAVDTEAVWLLQGWLFQHQPQFWGPAQIRAVLGAVPRGRLLVLDLFAESQPVYTRTASFQGQPFIWCMLHNFGGNHGLFGALEAVNGGPEAARLFPNSTMVGTGMAPEGISQNEVVYSLMAELGWRKDPVPDLAAWVTSFAARRYGVSHPDAGAAWRLLLRSVYNCSGEACRGHNRSPLVRRPSLQMNTSIWYNRSDVFEAWRLLLTSAPSLATSPAFRYDLLDLTRQAVQELVSLYYEEARSAYLSKELASLLRAGGVLAYELLPALDEVLASDSRFLLGSWLEQARAAAVSEAEADFYEQNSRYQLTLWGPEGNILDYANKQLAGLVANYYTPRWRLFLEALVDSVAQGIPFQQHQFDKNVFQLEQAFVLSKQRYPSQPRGDTVDLAKKIFLKYYPRWVAGSWGAPGGGSPAEAAAKEAAAKEAAAKEAAAKEAAAKAPSGGGGAPLCGGELVDTLQFVCGDRGFYFSRPASRVSARSRGIVEECCFRSCDLALLETYCATPAKSE
notes: as for B1
In assay [1], B2 came in with a Kuptake of 2.3 nM. In assay [2], this molecule gave an IC50 of 0.25 nM.

B3: Naglu-(GGGGS)4GGGPS-IGF-II (SEQ ID NO: 568) (enzyme)
chain: DEAREAAAVRALVARLLGPGPAADFSVSVERALAAKPGLDTYSLGGGGAARVRVRGSTGVAAAAGLHRYLRDFCGCHVAWSGSQLRLPRPLPAVPGELTEATPNRYRYYQNVCTQSYSFVWWDWARWEREIDWMALNGINLALAWSGQEAIWQRVYLALGLTQAEINEFFTGPAFLAWGRMGNLHTWDGPLPPSWHIKQLYLQHRVLDQMRSFGMTPVLPAFAGHVPEAVTRVFPQVNVTKMGSWGHFNCSYSCSFLLAPEDPIFPIIGSLFLRELIKEFGTDHIYGADTFNEMQPPSSEPSYLAAATTAVYEAMTAVDTEAVWLLQGWLFQHQPQFWGPAQIRAVLGAVPRGRLLVLDLFAESQPVYTRTASFQGQPFIWCMLHNFGGNHGLFGALEAVNGGPEAARLFPNSTMVGTGMAPEGISQNEVVYSLMAELGWRKDPVPDLAAWVTSFAARRYGVSHPDAGAAWRLLLRSVYNCSGEACRGHNRSPLVRRPSLQMNTSIWYNRSDVFEAWRLLLTSAPSLATSPAFRYDLLDLTRQAVQELVSLYYEEARSAYLSKELASLLRAGGVLAYELLPALDEVLASDSRFLLGSWLEQARAAAVSEAEADFYEQNSRYQLTLWGPEGNILDYANKQLAGLVANYYTPRWRLFLEALVDSVAQGIPFQQHQFDKNVFQLEQAFVLSKQRYPSQPRGDTVDLAKKIFLKYYPRWVAGSWGGGGSGGGGSGGGGSGGGGSGGGPSLCGGELVDTLQFVCGDRGFYFSRPASRVSARSRGIVEECCFRSCDLALLETYCATPAKSE
notes: The construct encodes full-length Naglu 1-743 with its signal peptide; also called Naglu fusion protein; GILT-tagged Naglu-IGF-II fusion protein
Regarding B3, the Kuptake in assay [1] was 5.4 nM; in assay [3], 7 to 9 nM. In assay [2], the IC50 is 0.27 nM and 0.23 nM.

B4: Naglu-(GGGGA)4GGGPS-IGF-II (SEQ ID NO: 569) (enzyme)
chain: DEAREAAAVRALVARLLGPGPAADFSVSVERALAAKPGLDTYSLGGGGAARVRVRGSTGVAAAAGLHRYLRDFCGCHVAWSGSQLRLPRPLPAVPGELTEATPNRYRYYQNVCTQSYSFVWWDWARWEREIDWMALNGINLALAWSGQEAIWQRVYLALGLTQAEINEFFTGPAFLAWGRMGNLHTWDGPLPPSWHIKQLYLQHRVLDQMRSFGMTPVLPAFAGHVPEAVTRVFPQVNVTKMGSWGHFNCSYSCSFLLAPEDPIFPIIGSLFLRELIKEFGTDHIYGADTFNEMQPPSSEPSYLAAATTAVYEAMTAVDTEAVWLLQGWLFQHQPQFWGPAQIRAVLGAVPRGRLLVLDLFAESQPVYTRTASFQGQPFIWCMLHNFGGNHGLFGALEAVNGGPEAARLFPNSTMVGTGMAPEGISQNEVVYSLMAELGWRKDPVPDLAAWVTSFAARRYGVSHPDAGAAWRLLLRSVYNCSGEACRGHNRSPLVRRPSLQMNTSIWYNRSDVFEAWRLLLTSAPSLATSPAFRYDLLDLTRQAVQELVSLYYEEARSAYLSKELASLLRAGGVLAYELLPALDEVLASDSRFLLGSWLEQARAAAVSEAEADFYEQNSRYQLTLWGPEGNILDYANKQLAGLVANYYTPRWRLFLEALVDSVAQGIPFQQHQFDKNVFQLEQAFVLSKQRYPSQPRGDTVDLAKKIFLKYYPRWVAGSWGGGGAGGGGAGGGGAGGGGAGGGPSLCGGELVDTLQFVCGDRGFYFSRPASRVSARSRGIVEECCFRSCDLALLETYCATPAKSE
notes: as for B1
Consider B4, for which the Kuptake in assay [1] was found to be 6.3 nM. The molecule further returned an IC50 in assay [2] of 0.36 nM.

B5: Naglu-Rigid-IGF-II (SEQ ID NO: 566) (enzyme)
chain: DEAREAAAVRALVARLLGPGPAADFSVSVERALAAKPGLDTYSLGGGGAARVRVRGSTGVAAAAGLHRYLRDFCGCHVAWSGSQLRLPRPLPAVPGELTEATPNRYRYYQNVCTQSYSFVWWDWARWEREIDWMALNGINLALAWSGQEAIWQRVYLALGLTQAEINEFFTGPAFLAWGRMGNLHTWDGPLPPSWHIKQLYLQHRVLDQMRSFGMTPVLPAFAGHVPEAVTRVFPQVNVTKMGSWGHFNCSYSCSFLLAPEDPIFPIIGSLFLRELIKEFGTDHIYGADTFNEMQPPSSEPSYLAAATTAVYEAMTAVDTEAVWLLQGWLFQHQPQFWGPAQIRAVLGAVPRGRLLVLDLFAESQPVYTRTASFQGQPFIWCMLHNFGGNHGLFGALEAVNGGPEAARLFPNSTMVGTGMAPEGISQNEVVYSLMAELGWRKDPVPDLAAWVTSFAARRYGVSHPDAGAAWRLLLRSVYNCSGEACRGHNRSPLVRRPSLQMNTSIWYNRSDVFEAWRLLLTSAPSLATSPAFRYDLLDLTRQAVQELVSLYYEEARSAYLSKELASLLRAGGVLAYELLPALDEVLASDSRFLLGSWLEQARAAAVSEAEADFYEQNSRYQLTLWGPEGNILDYANKQLAGLVANYYTPRWRLFLEALVDSVAQGIPFQQHQFDKNVFQLEQAFVLSKQRYPSQPRGDTVDLAKKIFLKYYPRWVAGSWGAPGGGSPAPAPTPAPAPTPAPAGGGPSGAPLCGGELVDTLQFVCGDRGFYFSRPASRVSARSRGIVEECCFRSCDLALLETYCATPAKSE
notes: as for B1
As to B5, the Kuptake in assay [1] came out at 2.4 nM. In addition, the IC50 in assay [2] was found to be 0.23 nM.
